Source: paper PMC3983035, “The RNA-Binding Protein QKI Suppresses Cancer-Associated Aberrant Splicing”

Assays:
QKI-5 (His-tagged) = target: T1, QKI-5 (His-tagged) (UniProt Q96PU8 1-341); experiment: EMSA; 0-2080 nM QKI-5; EMSA: 10 ng 32P-RNA, standard splicing conditions, 30 C, 20 min, then tRNA 5 min; 5% native PAGE; buffer, salt and pH not given; conditions: protein: recombinant; tags: His-tag (pET-28a); reverse primer also encodes C-terminal FLAG; chain copies: 2; label: 32P
T1 sequence: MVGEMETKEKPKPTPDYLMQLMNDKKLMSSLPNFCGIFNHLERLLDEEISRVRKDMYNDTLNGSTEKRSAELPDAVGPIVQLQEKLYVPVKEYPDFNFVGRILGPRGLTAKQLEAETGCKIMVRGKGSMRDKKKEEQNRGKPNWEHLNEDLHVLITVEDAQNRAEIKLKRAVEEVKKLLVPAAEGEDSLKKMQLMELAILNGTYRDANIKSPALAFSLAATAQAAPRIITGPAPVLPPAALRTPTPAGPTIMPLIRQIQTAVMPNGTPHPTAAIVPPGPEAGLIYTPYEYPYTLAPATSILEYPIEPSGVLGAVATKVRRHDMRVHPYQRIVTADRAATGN

SF1 (aa 1-361) = target: T2, SF1 (aa 1-361) (UniProt Q15637 1-361); experiment: EMSA; 5-10x molar excess; EMSA: 10 ng 32P-RNA, standard splicing conditions, 30 C, 20 min, then tRNA 5 min; 5% native PAGE; buffer, salt and pH not given; conditions: protein: recombinant; tags: N-terminal GST (pGEX-5X-2); label: 32P
T2 sequence: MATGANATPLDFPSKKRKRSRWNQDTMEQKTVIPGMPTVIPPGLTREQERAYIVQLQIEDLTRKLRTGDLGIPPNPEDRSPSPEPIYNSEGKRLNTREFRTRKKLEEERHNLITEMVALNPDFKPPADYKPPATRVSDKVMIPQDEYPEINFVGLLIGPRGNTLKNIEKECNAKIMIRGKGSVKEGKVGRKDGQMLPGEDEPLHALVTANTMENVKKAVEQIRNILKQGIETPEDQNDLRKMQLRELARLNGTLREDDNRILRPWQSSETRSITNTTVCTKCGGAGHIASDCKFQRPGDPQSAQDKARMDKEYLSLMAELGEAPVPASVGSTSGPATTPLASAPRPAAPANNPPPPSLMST

B1: NUMB mut2 RNA (ssRNA)
RNA: GGGCACUUGUACACCCUGCAUGAAUUGACUCCAUUGAUGUUGUCUGCUCCCGUUGUAGCGAGUGGCACUGACUCAGCCUUCCAU
B1: no binding (QKI-5 (His-tagged)).

B2: NUMB mut1 RNA (ssRNA)
RNA: GGGCACUUGUACACCCUGCAUGAAUUAACUCCAUUGAUGUUGUCUGCUCCCGUUGUAGCGAGUGGCACUGACUCAGCCUUCCAU
B2: binds (SF1 (aa 1-361)).
